# “And” between values parts separate entries of the source, which are not always exact repeats. Equal entries are not always repeated.
# Key:
# [1] = target: T1, KIF5B-CC3b-CC4 fragment, 6-histidine tag removed (human, UniProt P33176 771-914); assay: MST + other fluorescence titration; JIP3-N-RH1-lz3 wild type and alanine mutants labelled with NHS-fluorescein, constant at 20 nM; KIF5B-CC3b-CC4 without His tag titrated; 50 mM Tris pH 8.0, 200 mM NaCl, 10 mM MgCl2, 0.05% Tween 20; room temperature; Monolith NT.115; the change in overall fluorescence intensity was used for the Kd; 1:1 fit; conditions: both partners purified
# T1 construct: kinesin-1 heavy chain KIF5B, human, NP_004512.1, residues 771-914 (last part of CC3 and CC4); source: E. coli Rosetta, purified (His-Trap, Superdex 75 gel filtration); not shown: His6, N-terminal, cleaved
# T1 sequence (P33176 771-914): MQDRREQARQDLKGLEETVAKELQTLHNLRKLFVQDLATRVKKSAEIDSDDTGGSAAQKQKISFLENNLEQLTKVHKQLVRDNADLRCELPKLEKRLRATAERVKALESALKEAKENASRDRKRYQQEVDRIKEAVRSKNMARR
# [2] = target: T2, KIF5B-CC3b-CC4-dt fragment (human, UniProt P33176 771-963); assay: MST; labelled JIP3/4 fragment (Blue-NHS dye) constant at 20 nM, KIF5B fragment titrated 120 pM to 4 uM (up to 38.2 uM when needed); 50 mM Tris pH 8.0, 200 mM NaCl, 10 mM MgCl2, 0.05% Tween 20; room temperature; Monolith NT.115, premium capillaries, MST-on 0.5-1.5 s; 1:1 Kd fit; three replicates; the paper calls its affinities relative measurements; conditions: both partners purified
# T2 construct: kinesin-1 heavy chain KIF5B, human, NP_004512.1, residues 771-963 (last part of CC3, CC4 and distal tail); pET28 plasmid, NdeI/XhoI; the methods call it CC3-CC4-dt; also called KIF5B-CC3-CC4-dt; KIF5B-Tail; source: E. coli Rosetta, purified (His-Trap, Superdex 75 gel filtration); not shown: His6, N-terminal, kept
# T2 sequence (P33176 771-963): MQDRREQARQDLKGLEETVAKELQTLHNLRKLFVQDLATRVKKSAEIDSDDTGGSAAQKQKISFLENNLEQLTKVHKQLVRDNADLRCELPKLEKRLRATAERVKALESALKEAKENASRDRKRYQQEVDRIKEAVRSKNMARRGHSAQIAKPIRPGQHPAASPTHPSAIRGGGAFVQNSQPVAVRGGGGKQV
# [3] = target: the molecule itself; assay: SEC-MALS; JIP3/4-Nter fragments in solution, single peak; dimer; conditions not shown (Fig. S1B, Table S2)
# [4] = target: T2, KIF5B-CC3b-CC4-dt fragment; assay: MST; labelled JIP3/4 fragment (Blue-NHS dye) constant at 20 nM, KIF5B fragment titrated 120 pM to 4 uM (up to 38.2 uM when needed); 50 mM Tris pH 8.0, 200 mM NaCl, 10 mM MgCl2, 0.05% Tween 20; room temperature; Monolith NT.115, premium capillaries, MST-on 0.5-1.5 s; 1:1 Kd fit; three replicates; the paper calls its affinities relative measurements; conditions: both partners purified; remark: listed apart in the source
# [5] = target: T3, KIF5B-CC3b-CC4 fragment, with N-terminal 6-histidine tag (human, UniProt P33176 771-914); assay: as above; conditions: both partners purified
# T3 construct: kinesin-1 heavy chain KIF5B, human, NP_004512.1, residues 771-914 (last part of CC3 and CC4); also called CC3-CC4; source: E. coli Rosetta, purified (His-Trap, Superdex 75 gel filtration); not shown: His6, N-terminal, kept
# T3 sequence (P33176 771-914): as the sequence (P33176 771-914) above
Kd [1],Kd [2],Binder,also measured
395 ± 137 nM,–,"JIP3-N-RH1-lz3 E39A (domain or fragment, mouse, UniProt Q9ESN9-1 1-100, looked up, labelled with NHS-fluorescein (Thermo Fisher Scientific), JIP3, mouse, NP_038959.2, residues 1-100 (N-RH1-lz3); also called JIP3-E39A; source: E. coli Rosetta, purified (His-Trap, gel filtration, thrombin cleavage, gel filtration); not shown: His tag, N-terminal, cleaved; thioredoxin, N-terminal, cleaved) MMEIQMDEGGGVVVYQDDYCSGSVMSERVSGLAGSIYRAFERLIHCYDEEVVKELMPLVVNVLENLDSVLSENQEHEVELELLREDNEQLLTQYEREKAL",–
–,29.9 ± 3 nM,"JIP3-N-RH1-lz3 N61A (domain or fragment, mouse, UniProt Q9ESN9-1 1-100, looked up, labelled with a fluorescent dye in the MST assay (legend of Figure 4), JIP3, mouse, NP_038959.2, residues 1-100 (N-RH1-lz3), residue changed to that of JIP4; also called JIP3-N61A; Asn61 mutant; source: E. coli Rosetta, purified (His-Trap, gel filtration, thrombin cleavage, gel filtration); not shown: His tag, N-terminal, cleaved; thioredoxin, N-terminal, cleaved) MMEIQMDEGGGVVVYQDDYCSGSVMSERVSGLAGSIYREFERLIHCYDEEVVKELMPLVVAVLENLDSVLSENQEHEVELELLREDNEQLLTQYEREKAL",–
148 ± 21.4 nM,20.6 ± 2.6 nM,"JIP3-N-RH1-lz3 fragment (domain or fragment, mouse, UniProt Q9ESN9-1 1-100, looked up, labelled with the dye NHS-NT-488 (Blue-NHS, NanoTemper) in Tables 1 and 3; labelled with NHS-fluorescein (Thermo Fisher Scientific) in Table 2, JIP3, mouse, NP_038959.2, residues 1-100 (N-terminus, RH1 domain and first three heptad repeats of LZI); Unlabelled in SEC-MALS; also called JIP3-WT; wild-type JIP3-N-RH1-lz3; source: E. coli Rosetta, purified (His-Trap, gel filtration, thrombin cleavage, gel filtration); not shown: His tag, N-terminal, cleaved; thioredoxin, N-terminal, cleaved) MMEIQMDEGGGVVVYQDDYCSGSVMSERVSGLAGSIYREFERLIHCYDEEVVKELMPLVVNVLENLDSVLSENQEHEVELELLREDNEQLLTQYEREKAL",stoichiometry N [3]: 2; Kd [4]: 14.7 nM and 18.3 nM; Kd [5]: 77.7 ± 12 nM
215 ± 57.3 nM,–,"JIP3-N-RH1-lz3 E27A (domain or fragment, mouse, UniProt Q9ESN9-1 1-100, looked up, labelled with NHS-fluorescein (Thermo Fisher Scientific), JIP3, mouse, NP_038959.2, residues 1-100 (N-RH1-lz3); also called JIP3-E27A; source: E. coli Rosetta, purified (His-Trap, gel filtration, thrombin cleavage, gel filtration); not shown: His tag, N-terminal, cleaved; thioredoxin, N-terminal, cleaved) MMEIQMDEGGGVVVYQDDYCSGSVMSARVSGLAGSIYREFERLIHCYDEEVVKELMPLVVNVLENLDSVLSENQEHEVELELLREDNEQLLTQYEREKAL",–
–,47.5 ± 4.6 nM,"JIP3-N-RH1-lz3 L70F-S71A-E72Q-N73D (domain or fragment, mouse, UniProt Q9ESN9-1 1-100, looked up, labelled with a fluorescent dye in the MST assay (legend of Figure 4), JIP3, mouse, NP_038959.2, residues 1-100 (N-RH1-lz3), residues changed to those of JIP4; also called JIP3-L70F-S71A-E72Q-N73D; source: E. coli Rosetta, purified (His-Trap, gel filtration, thrombin cleavage, gel filtration); not shown: His tag, N-terminal, cleaved; thioredoxin, N-terminal, cleaved) MMEIQMDEGGGVVVYQDDYCSGSVMSERVSGLAGSIYREFERLIHCYDEEVVKELMPLVVNVLENLDSVFAQDQEHEVELELLREDNEQLLTQYEREKAL",–
226 ± 26.4 nM,–,"JIP3-N-RH1-lz3 E54A (domain or fragment, mouse, UniProt Q9ESN9-1 1-100, looked up, labelled with NHS-fluorescein (Thermo Fisher Scientific), JIP3, mouse, NP_038959.2, residues 1-100 (N-RH1-lz3); also called JIP3-E54A; source: E. coli Rosetta, purified (His-Trap, gel filtration, thrombin cleavage, gel filtration); not shown: His tag, N-terminal, cleaved; thioredoxin, N-terminal, cleaved) MMEIQMDEGGGVVVYQDDYCSGSVMSERVSGLAGSIYREFERLIHCYDEEVVKALMPLVVNVLENLDSVLSENQEHEVELELLREDNEQLLTQYEREKAL",–
90.8 ± 12.6 nM,–,"JIP3-N-RH1-lz3 R42A (domain or fragment, mouse, UniProt Q9ESN9-1 1-100, looked up, labelled with NHS-fluorescein (Thermo Fisher Scientific), JIP3, mouse, NP_038959.2, residues 1-100 (N-RH1-lz3); also called JIP3-R42A; source: E. coli Rosetta, purified (His-Trap, gel filtration, thrombin cleavage, gel filtration); not shown: His tag, N-terminal, cleaved; thioredoxin, N-terminal, cleaved) MMEIQMDEGGGVVVYQDDYCSGSVMSERVSGLAGSIYREFEALIHCYDEEVVKELMPLVVNVLENLDSVLSENQEHEVELELLREDNEQLLTQYEREKAL",–
151 ± 27.8 nM,–,"JIP3-N-RH1-lz3 R38A (domain or fragment, mouse, UniProt Q9ESN9-1 1-100, looked up, labelled with NHS-fluorescein (Thermo Fisher Scientific), JIP3, mouse, NP_038959.2, residues 1-100 (N-RH1-lz3); also called JIP3-R38A; source: E. coli Rosetta, purified (His-Trap, gel filtration, thrombin cleavage, gel filtration); not shown: His tag, N-terminal, cleaved; thioredoxin, N-terminal, cleaved) MMEIQMDEGGGVVVYQDDYCSGSVMSERVSGLAGSIYAEFERLIHCYDEEVVKELMPLVVNVLENLDSVLSENQEHEVELELLREDNEQLLTQYEREKAL",–
118 ± 23 nM,–,"JIP3-N-RH1-lz3 N65A (domain or fragment, mouse, UniProt Q9ESN9-1 1-100, looked up, labelled with NHS-fluorescein (Thermo Fisher Scientific), JIP3, mouse, NP_038959.2, residues 1-100 (N-RH1-lz3); also called JIP3-N65A; source: E. coli Rosetta, purified (His-Trap, gel filtration, thrombin cleavage, gel filtration); not shown: His tag, N-terminal, cleaved; thioredoxin, N-terminal, cleaved) MMEIQMDEGGGVVVYQDDYCSGSVMSERVSGLAGSIYREFERLIHCYDEEVVKELMPLVVNVLEALDSVLSENQEHEVELELLREDNEQLLTQYEREKAL",–
204 ± 57.8 nM,–,"JIP3-N-RH1-lz3 E41A (domain or fragment, mouse, UniProt Q9ESN9-1 1-100, looked up, labelled with NHS-fluorescein (Thermo Fisher Scientific), JIP3, mouse, NP_038959.2, residues 1-100 (N-RH1-lz3); also called JIP3-E41A; source: E. coli Rosetta, purified (His-Trap, gel filtration, thrombin cleavage, gel filtration); not shown: His tag, N-terminal, cleaved; thioredoxin, N-terminal, cleaved) MMEIQMDEGGGVVVYQDDYCSGSVMSERVSGLAGSIYREFARLIHCYDEEVVKELMPLVVNVLENLDSVLSENQEHEVELELLREDNEQLLTQYEREKAL",–
–,198 ± 27.3 nM,"JIP3-N-RH1-lz3 H45G-C46R (domain or fragment, mouse, UniProt Q9ESN9-1 1-100, looked up, labelled with a fluorescent dye in the MST assay (legend of Figure 4), JIP3, mouse, NP_038959.2, residues 1-100 (N-RH1-lz3), residues changed to those of JIP4; also called JIP3-H45G-C46R; source: E. coli Rosetta, purified (His-Trap, gel filtration, thrombin cleavage, gel filtration); not shown: His tag, N-terminal, cleaved; thioredoxin, N-terminal, cleaved) MMEIQMDEGGGVVVYQDDYCSGSVMSERVSGLAGSIYREFERLIGRYDEEVVKELMPLVVNVLENLDSVLSENQEHEVELELLREDNEQLLTQYEREKAL",–
–,46.8 ± 6.8 nM,"JIP3-N-RH1-lz3 E77Q (domain or fragment, mouse, UniProt Q9ESN9-1 1-100, looked up, labelled with a fluorescent dye in the MST assay (legend of Figure 4), JIP3, mouse, NP_038959.2, residues 1-100 (N-RH1-lz3), residue changed to that of JIP4; also called JIP3-E77Q; source: E. coli Rosetta, purified (His-Trap, gel filtration, thrombin cleavage, gel filtration); not shown: His tag, N-terminal, cleaved; thioredoxin, N-terminal, cleaved) MMEIQMDEGGGVVVYQDDYCSGSVMSERVSGLAGSIYREFERLIHCYDEEVVKELMPLVVNVLENLDSVLSENQEHQVELELLREDNEQLLTQYEREKAL",–
–,682 ± 187 nM,"JIP4-RH1-lz3 fragment (domain or fragment, UniProt O60271 18-95, looked up, labelled with a fluorescent dye in the MST assay (legend of Figure 4), JIP4, RH1 domain and first three heptad repeats of LZI, without the 17-residue N-terminus) AVMSERVSGLAGSIYREFERLIGRYDEEVVKELMPLVVAVLENLDSVFAQDQEHQVELELLRDDNEQLITQYEREKAL",stoichiometry N [3]: 2
–,777 ± 146 nM,"JIP4-N-RH1-lz3 fragment (domain or fragment, UniProt O60271 1-95, looked up, labelled with a fluorescent dye in the MST assay (legend of Figure 4), JIP4, N-terminus (17 residues), RH1 domain and first three heptad repeats of LZI; also called wild-type JIP4-N-RH1-lz3) MELEDGVVYQEEPGGSGAVMSERVSGLAGSIYREFERLIGRYDEEVVKELMPLVVAVLENLDSVFAQDQEHQVELELLRDDNEQLITQYEREKAL",stoichiometry N [3]: 2
–,–,"JIP3-RH1-LZI fragment (domain or fragment, UniProt Q9ESN9 22-187, looked up, labelled with the dye NHS-NT-488 (Protein Labelling Kit Blue-NHS, NanoTemper) in the MST assay, JIP3, RH1 domain followed by the entire LZI coiled-coil, without the N-terminus; also called RH1-LZ1) GSVMSERVSGLAGSIYREFERLIHCYDEEVVKELMPLVVNVLENLDSVLSENQEHEVELELLREDNEQLLTQYEREKALRKQAEEKFIEFEDALEQEKKELQIQVEHYEFQTRQLELKAKNYADQISRLEERESEMKKEYNALHQRHTEMIQTYVEHIERSKMQQV",Kd [4]: 50.5 ± 12.9 nM
–,–,"JIP3-RH1-lz3 fragment (domain or fragment, mouse, UniProt Q9ESN9-1 22-100, looked up, labelled with the dye NHS-NT-488 (Protein Labelling Kit Blue-NHS, NanoTemper) in the MST assay, JIP3, mouse, NP_038959.2, residues 22-100 (RH1 domain and first three heptad repeats of LZI); Unlabelled in SEC-MALS; source: E. coli Rosetta, purified (His-Trap, gel filtration, thrombin cleavage, gel filtration); not shown: His tag, N-terminal, cleaved; thioredoxin, N-terminal, cleaved) GSVMSERVSGLAGSIYREFERLIHCYDEEVVKELMPLVVNVLENLDSVLSENQEHEVELELLREDNEQLLTQYEREKAL",stoichiometry N [3]: 2; Kd [4]: 79.3 ± 15.9 nM
–,–,"JIP3-N-RH1-LZI fragment (domain or fragment, mouse, UniProt Q9ESN9-1 1-187, looked up, labelled with the dye NHS-NT-488 (Protein Labelling Kit Blue-NHS, NanoTemper) in the MST assay, Unlabelled in SEC-MALS; also called JIP3-N-RH1-LZ1; JIP3-Nter; source: E. coli Rosetta, purified (His-Trap, gel filtration, thrombin cleavage, gel filtration); not shown: His tag, N-terminal, cleaved; thioredoxin, N-terminal, cleaved) MMEIQMDEGGGVVVYQDDYCSGSVMSERVSGLAGSIYREFERLIHCYDEEVVKELMPLVVNVLENLDSVLSENQEHEVELELLREDNEQLLTQYEREKALRKQAEEKFIEFEDALEQEKKELQIQVEHYEFQTRQLELKAKNYADQISRLEERESEMKKEYNALHQRHTEMIQTYVEHIERSKMQQV",stoichiometry N [3]: 2; Kd [4]: 18.8 ± 4 nM

# From paper PMC13499124, “Insights into how JIP3 and JIP4 adaptor proteins relieve the auto-inhibited form of the kinesin-1 motor” (The Journal of Biological Chemistry, 2026)
